Measurements: doi:10.1101/354985

T1: POT1a;TPP1 (mouse;mouse?, UniProt Q91WC1;Q5EE38 1-640;1-416, |)
T1 sequence 1: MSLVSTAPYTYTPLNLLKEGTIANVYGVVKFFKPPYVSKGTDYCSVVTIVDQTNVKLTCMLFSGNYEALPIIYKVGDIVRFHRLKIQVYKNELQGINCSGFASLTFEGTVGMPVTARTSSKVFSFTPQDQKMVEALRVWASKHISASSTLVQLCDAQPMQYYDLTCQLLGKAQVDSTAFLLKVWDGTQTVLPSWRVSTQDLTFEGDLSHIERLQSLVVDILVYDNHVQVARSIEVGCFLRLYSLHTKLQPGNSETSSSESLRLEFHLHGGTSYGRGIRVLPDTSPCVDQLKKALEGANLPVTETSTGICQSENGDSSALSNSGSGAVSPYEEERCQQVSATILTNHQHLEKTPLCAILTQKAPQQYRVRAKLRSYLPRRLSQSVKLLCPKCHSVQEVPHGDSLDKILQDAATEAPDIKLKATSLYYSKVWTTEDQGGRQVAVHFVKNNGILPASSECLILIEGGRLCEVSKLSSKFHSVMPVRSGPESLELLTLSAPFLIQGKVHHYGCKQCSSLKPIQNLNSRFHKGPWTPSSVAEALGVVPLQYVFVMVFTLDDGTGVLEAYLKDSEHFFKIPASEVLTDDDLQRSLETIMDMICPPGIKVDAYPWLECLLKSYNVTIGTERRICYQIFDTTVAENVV
T1 sequence 2: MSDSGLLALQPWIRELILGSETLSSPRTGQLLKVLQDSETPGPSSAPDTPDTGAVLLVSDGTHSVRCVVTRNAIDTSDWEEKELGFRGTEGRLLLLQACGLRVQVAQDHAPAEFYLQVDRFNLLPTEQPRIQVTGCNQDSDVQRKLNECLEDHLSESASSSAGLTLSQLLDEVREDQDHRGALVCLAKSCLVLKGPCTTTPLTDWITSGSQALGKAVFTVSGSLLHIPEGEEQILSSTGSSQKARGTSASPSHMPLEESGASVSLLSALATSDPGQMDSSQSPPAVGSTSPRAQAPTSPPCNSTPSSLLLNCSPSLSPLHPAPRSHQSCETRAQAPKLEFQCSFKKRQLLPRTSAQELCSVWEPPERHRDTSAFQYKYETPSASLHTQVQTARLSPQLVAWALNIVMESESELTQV


Key:
Experiment in all cases: EMSA
Δ70-POT1aC;TPP1 [1] = target: T2, Δ70-POT1aC;TPP1 (mouse? (POT1a part); RPA70 organism not …, UniProt Q8VEE4;Q5EE38 191-623+Q91WC1:149-640;1-416, internal_change|)
POT1a;TPP1 [2] = target: T1, POT1a;TPP1
Δ70-POT1aC;TPP1 [3] = target: T2, Δ70-POT1aC;TPP1; remark: listed apart in the source
POT1a;TPP1 [4] = target: T1, POT1a;TPP1; remark: listed apart in the source

Binder	binding result (Δ70-POT1aC;TPP1 [1])	binding result (POT1a;TPP1 [2])	Kd (Δ70-POT1aC;TPP1 [3]) [nM]	Kd (POT1a;TPP1 [4]) [nM]
ATGCGACTCGAGCTAGATGATGTCTTCTGCAATCA (ssDNA) [Scr35]	binds	no binding		
TTAGGGTTAGGGTTAGGGTTAGGGTTAGGGTTAG (ssDNA) [Telo34]			~0.5	~0.5
